The record followed here is patent US20230374147A1 (HUMMINGBIRD BIOSCIENCE PTE, published 2023).

For assay [1], the target named is T1, His-tagged cynomolgous macaque BCMA (Acro Biosystems, BCA-C52H7) (cynomolgus macaque, UniProt Q02223 1-54 (human entry)).
T1 construct: Bought protein; also called cyno BCMA; CyBCMA; not shown: His tag
Description: ELISA, hybridoma supernatant, coated His-tagged antigen.

Assay [2] has as its target T2, His-tagged human BCMA (Acro Biosystems, Cat. #BCA-H522y) (human, UniProt Q02223 1-54).
T2 construct: also called huBCMA; P1; not shown: His tag
T2 sequence: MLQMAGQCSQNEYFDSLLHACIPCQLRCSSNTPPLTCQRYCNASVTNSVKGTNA
The description is as above.

Assay [3] addresses T2, His-tagged human BCMA (Acro Biosystems, …). Nature of the assay: ELISA, IgG purified from hybridoma supernatant, coated His-tagged antigen.
The target of assay [4] is T3, human BCMA expressed on cells (human, UniProt Q02223 1-184).
T3 construct: the cell line is named under assay; also called wildtype human BCMA
T3 sequence: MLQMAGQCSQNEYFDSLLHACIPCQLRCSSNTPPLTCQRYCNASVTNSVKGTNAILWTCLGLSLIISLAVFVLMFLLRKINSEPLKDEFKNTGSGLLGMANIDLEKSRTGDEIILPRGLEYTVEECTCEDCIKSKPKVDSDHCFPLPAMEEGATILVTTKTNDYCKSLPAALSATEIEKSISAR
Nature of the assay: flow cytometry, hybridoma supernatant, HEK293T cells stably expressing human BCMA.

The target in assay [5] is T4, His-tagged mouse BCMA (Acro Biosystems, BCA-M52H3) (mouse, UniProt O88472 1-49).
T4 construct: Bought protein; not shown: His tag
T4 chain: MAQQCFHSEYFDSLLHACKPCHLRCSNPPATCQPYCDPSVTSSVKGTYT
Description: ELISA, hybridoma supernatant, coated His-tagged antigen.

Assay [6] has as its target T5, recombinant his-tagged human TACI (Sinobiological cat #11937-H08H) (human, UniProt O14836 1-165).
T5 construct: Bought protein; also called Human TACI-His; huTACI; not shown: His tag
T5 sequence: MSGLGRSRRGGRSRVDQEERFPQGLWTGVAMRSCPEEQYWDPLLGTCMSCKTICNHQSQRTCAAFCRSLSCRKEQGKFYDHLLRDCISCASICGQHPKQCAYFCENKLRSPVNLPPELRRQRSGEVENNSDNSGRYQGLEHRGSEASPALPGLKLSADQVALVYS
Nature of the assay: BLI, IgG on HFC tip, His-tagged human TACI 300-37.5 nM.

The target in assay [7] is T1, His-tagged cynomolgous macaque BCMA …. Nature of the assay: ELISA, coated Cyno BCMA-His.
For assay [8], the target named is T5, recombinant his-tagged human TACI …. Description: ELISA, coated Human TACI-His.
For assay [9], the target named is T2, His-tagged human BCMA (Acro Biosystems, …). Nature of the assay: BLI, IgG on HFC tip, His-tagged human BCMA 300-37.5 nM.
The target in assay [10] is T3, human BCMA expressed on cells. Description: flow cytometry, H929 cells (BCMA+).
The target is the same in assay [11]. Nature of the assay: flow cytometry, fixed RPMI 8226 cells (BCMA+, TACI+: the cells carry both targets).
Assay [12] has as its target T6, Cyno TACI-His (Sino Biological, 90976-C08H) (cynomolgus macaque, UniProt G7PTR7 1-165).
T6 construct: Bought protein; also called cynomolgous macaque TACI; CyTACI
T6 sequence: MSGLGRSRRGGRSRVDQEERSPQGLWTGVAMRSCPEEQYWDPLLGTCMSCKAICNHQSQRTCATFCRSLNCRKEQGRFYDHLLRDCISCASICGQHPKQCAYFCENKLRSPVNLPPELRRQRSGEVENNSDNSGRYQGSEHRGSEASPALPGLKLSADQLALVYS
Nature of the assay: ELISA, coated Cyno TACI-His.

The target in assay [13] is T1, His-tagged cynomolgous macaque BCMA …. Nature of the assay: BLI, IgG on HFC tip, His-tagged cynomolgus BCMA 300-37.5 nM.
Assay [14] concerns the target T7, Human HER3-His (Sino Biological, 10201-H08H) (human, UniProt P21860 20-643).
T7 construct: Specificity control; also called Human HERS-His
Description: ELISA, coated His-tagged antigen.

The target of assay [15] is T8, Human BCMA-His (Sino Biological, 10620-H08H) (human, UniProt Q02223 1-54).
T8 construct: not shown: His tag
T8 sequence: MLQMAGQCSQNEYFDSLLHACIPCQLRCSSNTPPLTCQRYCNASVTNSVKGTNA
Nature of the assay: ELISA, coated Human BCMA-His.

B1: 539-SP5-D7 (antibody produced by the hybridoma) (antibody, V domains shown)
VH: EVMLVDSGGNLVKPGGSLKLSCAASGFTFSNYVISWVRQTPEKRLEWVATISTVGTNTYYPDSVRGRFTISRDNAENTLYLQMSSLRSEDTAIYYCSRHKYGYDDPSYAMDYWGQGTSVTVSS
VL: QLVLTQSSSASFSLGASAKLTCTLSSQHSTYTIEWYQQQPLKPPKYVMELKKDGSHSTGDGIPDRFSGSSSGADRYLSISNIQAEDEAIYICGVGDTVKEQFVYVFGGGTKVTVL
notes: Mouse antibody from B cell hybridoma (culture supernatant or IgG purified from it)
In the case of B1, the “ELISA values (OD 450 nm)” value was 0.252 OD in assay [1] and 0.817 OD in assay [2]. The molecule also came in with an EC50 in assay [3] of 0.0335 µg/mL. For the same molecule, in assay [4], the “% Parent (percent positive cells)” value came out at 76.2%.

B2: 539-SP2-H3 (antibody produced by the hybridoma) (antibody, V domains shown)
VH: EVQLQQSGPELVKPGASVKMSCKASGYTFTSYVIHWVKQKPGQGLEWIGYVLPYNDVIKYNEKFKGKATLTSDKSSSTAYMDLSSLTSEDSAVYYCARWGDFDEGIWFPYWGQGTLVTVSA
VL: DVLMTQTPLSLPVSLGDHASVSCRSSQSIVHTDGNTYLEWYLQKPGQSPKLLIYKVSNRFSGVPDRFSGSGSGTDFTLKISRVEAEDLGVYYCFQGSHVPWTFGGGTKLEIK
notes: as for B1
Regarding B2, the “ELISA values (OD 450 nm)” value in [1] came to 0.669 OD; in [2], 0.813 OD; in [5] it was 0.542 OD. Further, a half-maximal effect in assay [3] (EC50) was put at 0.152 µg/mL. The “% Parent (percent positive cells)” value in assay [4] is 74.3%.

B3: 1C8-403 hIgG1 (antibody, V domains shown)
VH: QVQLVQSGAEVKKPGASVKVSCKASGYTFTNYVMHWVKQKPGQGLEWMGYILPYNDGTKYAQKFQGKVTMTSDKSTSTVYMELSSLTSEDTAVYYCARYDWEGSFDYWGQGTLVTVSS
VL: DIQMTQSPSSLSASVGDRVTITCRASSDISNYLNWYQQKPGKAPKLLMCYTSRLHSGVPSRFSGSGSGTDFTLTISSLEQEDFATYYCQQGNTFPPTFGGGTKVEIKR
notes: also called [91]; hu1C8-403
Regarding B3, the Kd amounted to 1100 µM in assay [6], 0.0586 µM in [9] and 0.00654 µM in [13]. For the same molecule, the koff in [6] was determined as 0.131 s⁻¹; in [9], 0.00288 s⁻¹; in [13], 0.00917 s⁻¹. In addition, the figures for the kon in [6], in assay [9] and in [13] were 118 M⁻¹ s⁻¹, 49200 M⁻¹ s⁻¹ and 1.4e+06 M⁻¹ s⁻¹, respectively. The concentration for a half-maximal effect (EC50) in [7] was 0.016 nM; in assay [8], 0.051 nM; in [10], 0.134 nM; in assay [11], 0.000172 µM; in assay [12], 0.034 nM; in [15] it was 0.062 nM. For the same molecule, the binding result in assay [14] was “no binding (tested: 3 µg/ml (highest concentration))”.

B4: 1C8-507 hIgG1 (antibody, V domains shown)
VH: QVQLVQSGAEVKKPGASVKVSCKASGYTFRNYVMHWVKQKPGQGLEWMGWILPYNDGTKYAQKFQGKVTMTSDKSTSTVYMELSSLTSEDTAVYYCARYDYEGSFDYWGQGTLVTVSS
VL: DIQMTQSPSSLSASVGDRVTITCRASQDISNYLNWYQQKPGKAPKLLMRYTSLLHSGVPSRFSGSGSGTDFTLTISSLEQEDFATYYCQQGNTFPPTFGGGTKVEIKR
notes: also called [92]; hu1C8-507
Take B4: the dissociation constant (Kd) in assay [6] is 0.61 µM; in assay [9], 0.0591 µM; in assay [13], 0.0217 µM. The koff in [6] was 0.163 s⁻¹; in [9], 0.00172 s⁻¹; in assay [13], 0.0354 s⁻¹. In addition, the kon in assay [6] stood at 267000 M⁻¹ s⁻¹; in assay [9], 29200 M⁻¹ s⁻¹; in assay [13] it was 1.63e+06 M⁻¹ s⁻¹. Further, the 50% effective concentration (EC50) in [7] turned out to be 0.038 nM; in assay [8] it was 0.021 nM; in [10], 0.095 nM; in [11], 0.000136 µM; in assay [12], 0.011 nM; in assay [15] it was 0.087 nM. Besides, the binding result in assay [14] is “no binding (tested: 3 µg/ml (highest concentration))”.

B5: 552-LN2-E6 (antibody produced by the hybridoma) (antibody, V domains shown)
VH: QIQLVQSGPELKKPGETVKISCMASGYTFTDYSVRWVKQAPGKGLEWMGWINTETGEPTYADDFKGRFAFSLETSASTAYLQINNLKNEDTATYFCAISYYYALDYWGHGTSVTVSS
VL: DIVLTQSPASLTVSLGQRATISCRASKSVSTSVYSFLHWYQQKPGQPPKLLIYLASNLESGVPARFSGSGSGTDFTLNIHPVEEEDAATYYCQHSRELPRTFGGGTKLEIK
notes: as for B1
Take B5: the “ELISA values (OD 450 nm)” value in assay [1] amounted to 0.729 OD; in [2], 0.832 OD; in assay [5], 0.002 OD. The EC50 in assay [3] was determined as 0.0505 µg/mL. For the same molecule, the “% Parent (percent positive cells)” value in [4] was determined as 60.8%.

B6: 552-LN2-F8 (antibody produced by the hybridoma) (antibody, V domains shown)
VH: QIQLVQSGPELKKPGETVKISCKASGYTFTDYTMYWVKQAPGKGLKWMGWINTETGEPTYADDFKGRFVFSLETSANTAYLQINNLKNEDTATYFCAISYYYGMDYWGQGTSVTVTS
VL: DIILTQSPASLAVSLGQRATITCRASKSVSTSGYNFVYWYQQKPGQPPKLLIYLASNLESGVPARFSGSGSGTDFTLNIHPVEEEDAATYYCQHSRELPRTFGGGTKLEIK
notes: as for B1
Consider B6, for which the “ELISA values (OD 450 nm)” value in assay [1] stood at 1.83 OD; in assay [2], 0.884 OD; in assay [5], 0.001 OD. The EC50 in assay [3] is 0.0585 µg/mL. For the same molecule, the “% Parent (percent positive cells)” value in assay [4] is 73.8%.

B7: 552-LN1-E9 (antibody produced by the hybridoma) (antibody, V domains shown)
VH: QIQLVQSGPELKKPGETVKISCKASGYTFTDYSIYWVKQAPGKGLKWMGWINTETGEPTYADDFKGRFAFSLETSASSAYLQINTLKNEDTATYFCSISYYYAMDYWGQGTSVTVSS
VL: DIVLTQSPASLAVSLGQRATISCRASKSVSTSGYSFLHWYQQKPGQPPKLLIYFASNLESGVPARFSGSGSGTDFTLNIHPVEEEDAATYYCQHSRELPRTFGGGTKLEIK
notes: as for B1
B7: the “ELISA values (OD 450 nm)” value in assay [1] came to 2.07 OD; in assay [2] it was 0.836 OD; in [5], 0.017 OD. Also, the midpoint of the response in assay [3], the EC50, lay at 0.071 µg/mL. The “% Parent (percent positive cells)” value in [4] worked out at 75.4%.

B8: 552-LN1-F4 (antibody produced by the hybridoma) (antibody, V domains shown)
VH: QIQLVQSGPELKKPGETVKISCMASGYTFTDYSVRWVKQAPGKGLEWMGWINTETGEPTYAHDFKGRFAFSLETSASTAYLQINNLKDEDTSTYFCAISYYYALDYWGHGTSVTVSS
VL: DIVLTQSPASLTVSLGQRATISCRASKSVSTSGYNFLHWYQQKPGQPPKLLIYLASNLESGAPARFSGSGSGTDFTLNIHPVEEEDAATYYCQHSRELPRTFGGGTKLEIK
notes: as for B1
On to B8, for which the “ELISA values (OD 450 nm)” value in assay [1] stood at 1.89 OD; in [2], 0.845 OD; in assay [5], 0.006 OD. In assay [3], this molecule registered an EC50 of 0.037 µg/mL. The “% Parent (percent positive cells)” value in assay [4] came out at 66.4%.
